This note sets out measurements from US20230348578A1, “CONFORMATION-SPECIFIC ANTIBODIES THAT BIND TAU PROTEIN AND USES THEREOF” (Beth Israel Deaconess Medical Center, Inc., priority 2020, published 2023).

Residue numbers refer to the chain shown, from its start.

B1: HT1: humanized cis-pThr231-tau mAb; heavy chain variable domain SEQ ID NO: 25, light chain variable domain SEQ ID NO: 16 (antibody, V domains shown)
VH: QVQLVQSGAELKKPGASVKMSCKASGYTFTSYWIHWVKQRPGQGLEWIGVIDPSDSYTRYNQKFKGRATLTVDTSASTAYMQLSSLTSEDSAVYYCTTWEVDYWGQGTTVTVSS
VL: DVVMTQSPLSLPVTLGQPASISCRSSQSLVHSDGNTYLHWYLQKPGQSPQLLIYKVSNRFSGVPDRFSGSGSGTDFTLKISRVEAEDVGVYFCSQSTHVPWTFGGGTKVEIK
B2: HT6: humanized cis-pThr231-tau mAb; heavy chain variable domain SEQ ID NO: 26, light chain variable domain SEQ ID NO: 18 (antibody, V domains shown)
VH: B1 VH with L11V, Q82E, T87R, S91T, T109L
VL: B1 VL with F60D
B3: HT5: humanized cis-pThr231-tau mAb; heavy chain variable domain SEQ ID NO: 25, light chain variable domain SEQ ID NO: 18 (antibody, V domains shown)
VH: B1 VH
VL: B1 VL with F60D
B4: HT11: humanized cis-pThr231-tau mAb; heavy chain variable domain SEQ ID NO: 27, light chain variable domain SEQ ID NO: 19 (antibody, V domains shown)
VH: B1 VH with L11V, M20V, K38R, A68V, Q82E, T87R, S91T, T109L
VL: B1 VL with F92Y
B5: HT14: humanized cis-pThr231-tau mAb; heavy chain variable domain SEQ ID NO: 25, light chain variable domain SEQ ID NO: 17 (antibody, V domains shown)
VH: B1 VH
VL: B1 VL with H39N
B6: HT12: humanized cis-pThr231-tau mAb; heavy chain variable domain SEQ ID NO: 28, light chain variable domain SEQ ID NO: 19 (antibody, V domains shown)
VH: B1 VH with L11V, M20V, K38R, A68V, L70I, V72R, Q82E, T87R, S91T, T109L
VL: B1 VL with F92Y
B7: HT9: humanized cis-pThr231-tau mAb; heavy chain variable domain SEQ ID NO: 25, light chain variable domain SEQ ID NO: 19 (antibody, V domains shown)
VH: B1 VH
VL: B1 VL with F92Y
B8: HT15: humanized cis-pThr231-tau mAb; heavy chain variable domain SEQ ID NO: 26, light chain variable domain SEQ ID NO: 17 (antibody, V domains shown)
VH: B1 VH with L11V, Q82E, T87R, S91T, T109L
VL: B1 VL with H39N
B9: HT16: humanized cis-pThr231-tau mAb; heavy chain variable domain SEQ ID NO: 27, light chain variable domain SEQ ID NO: 17 (antibody, V domains shown)
VH: B1 VH with L11V, M20V, K38R, A68V, Q82E, T87R, S91T, T109L
VL: B1 VL with H39N
B10: HT7: humanized cis-pThr231-tau mAb; heavy chain variable domain SEQ ID NO: 27, light chain variable domain SEQ ID NO: 18 (antibody, V domains shown)
VH: B1 VH with L11V, M20V, K38R, A68V, Q82E, T87R, S91T, T109L
VL: B1 VL with F60D
B11: HT17: humanized cis-pThr231-tau mAb; heavy chain variable domain SEQ ID NO: 28, light chain variable domain SEQ ID NO: 17 (antibody, V domains shown)
VH: B1 VH with L11V, M20V, K38R, A68V, L70I, V72R, Q82E, T87R, S91T, T109L
VL: B1 VL with H39N
B12: HT4: humanized cis-pThr231-tau mAb; heavy chain variable domain SEQ ID NO: 28, light chain variable domain SEQ ID NO: 16 (antibody, V domains shown)
VH: B1 VH with L11V, M20V, K38R, A68V, L70I, V72R, Q82E, T87R, S91T, T109L
VL: B1 VL
B13: HT13: mouse-human chimera control antibody; heavy chain variable domain SEQ ID NO: 24, light chain variable domain SEQ ID NO: 15 (antibody, V domains shown)
VH: B1 VH with V5Q, S7P, K12V, R67K, A76S, V110L
VL: B1 VL with S7T, T14S, Q17D, P18Q, Q50K, V83L, V88L, V109L
B14: C113: previously described murine cis-pTau monoclonal antibody (U.S. Pat. No. 9,688,747); SEQ ID NO: 24 and 15; positive control (antibody, V domains shown)
VH: B1 VH with V5Q, S7P, K12V, R67K, A76S, V110L
VL: B1 VL with S7T, T14S, Q17D, P18Q, Q50K, V83L, V88L, V109L
notes: previously described murine cis-pTau monoclonal antibody (U.S. Pat. No. 9,688,747); positive control

cis P-tau, sequence (P10636 1-441 isoform P10636-8): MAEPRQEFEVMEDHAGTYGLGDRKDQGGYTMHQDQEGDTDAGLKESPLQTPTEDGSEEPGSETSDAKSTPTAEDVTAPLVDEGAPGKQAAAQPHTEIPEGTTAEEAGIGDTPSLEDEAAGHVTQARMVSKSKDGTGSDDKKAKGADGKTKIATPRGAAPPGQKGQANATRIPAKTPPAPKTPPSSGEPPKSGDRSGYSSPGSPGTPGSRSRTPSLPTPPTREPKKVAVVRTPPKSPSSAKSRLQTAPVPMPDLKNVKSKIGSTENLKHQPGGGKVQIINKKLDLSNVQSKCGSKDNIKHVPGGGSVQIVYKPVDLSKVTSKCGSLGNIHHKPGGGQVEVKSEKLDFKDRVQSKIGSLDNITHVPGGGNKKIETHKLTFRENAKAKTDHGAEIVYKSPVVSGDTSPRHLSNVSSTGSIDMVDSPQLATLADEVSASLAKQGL

One experiment concerns the target cis pT231-tau (P-tau peptide, pure cis or cis-locked). Kind of experiment: Biacore assay of binding affinity of humanized cis mAb variants.
Details: not given
An excerpt:
We next started to characterize and select lead humanized mAbs. We expressed and purified humanized mAb variants using a CHO expression system. We transfected over 45 plasmid DNA pairs of heavy and light chain cDNAs into CHO cells to express over 225 humanized cis mAb variants in various combinations. To evaluate the target binding specificity and affinity of our mouse mAbs, we established a simple and quantitative ELISA to screen the clones using a wild-type P-tau peptide and its pure cis or cis-locked, and pure trans counterparts and determined the binding affinity for selected clones using Biacore assays. We screened over 200 humanized cis mAb variants. […] Furthermore, one-tenth of humanized cis mAb variants were also able to recognize cis P-tau in human AD and TBI brains based on immunostaining analysis.
(§1) The binding affinity of selected humanized antibody clones was determined by Biacore assay using a wild-type P-tau peptide and its pure cis or cis-locked, and pure trans counterparts. The […] of the selected humanized cis mAb variants was determined by assessing their ability to eliminate cis P-tau in stressed neurons in cell cultures. Functional restoration of selected clones was determined by their ability to restore risk-taking behavior after 3-hit or 7-hit repetitive TBI in mice, as assayed by elevated plus maze.
In general terms: SPR reads the build-up and loss of mass on a sensor chip optically.
What is called Kd is the constant that tells how readily two partners part at equilibrium. B1: the dissociation constant Kd worked out at 1.83 nM.

With B2, the dissociation constant Kd amounted to 6.48 nM.

Turning to B3, the Kd turned out to be 6.91 nM.

In the case of B4, the dissociation constant (Kd) was found to be 3.99 nM.

Turning to B5, the Kd was 30.2 nM.

As for B6, the Kd came out at 3.55 nM.

Regarding B7, the Kd is 1.89 nM.

Take B8: the Kd came out at 33.4 nM.

For the molecule B9, the dissociation constant Kd was determined as 3.26 nM.

B10: the Kd was 10.8 nM.

Turning to B11, the Kd was determined as 4940 nM.

For the molecule B12, the Kd is 2.42 nM.

Consider B13, for which the Kd turned out to be 1.26 nM.

The next experiment has as its target cis P-tau (Homo sapiens, UniProt P10636). Kind of experiment: Elimination of cis P-tau in cultured neurons stressed by hypoxia. The format is cell-based. The arrangement: endogenous in cells. As to conditions: 2.5 μg/ml, 5 μg/ml and 10 μg/ml. As for the experimental part:
as §1
Cultured neurons were subjected to neuron stress by hypoxia in the presence or absence of different concentration of humanized antibody variants, followed by immunoblotting analysis to analyze cis P-tau levels in the stressed neurons, the results of which are provided in FIGS. 2-4. FIG. 2 is an immunostaining image showing the ability of humanized cis pT231-tau monoclonal antibody variants to eliminate cis P-tau in neurons under hypoxic conditions. Cis P-tau levels are reported in red and blue reports nuclear staining (Hoechst) to represent all neurons in the experiment. […] Cis P-tau levels are reported in red and blue reports nuclear staining (Hoechst) to represent all neurons in the experiment. […] IgG is a negative control. The cis-pTau monoclonal antibody C113 serves as a positive control.
Regarding B14, the “elimination of cis P-tau in neurons under hypoxic conditions (images)” value (“elimination of cis P-tau in neurons” below) is listed as “elimination of cis P-tau”.

Take B1: the “elimination of cis P-tau in neurons” value is given as “elimination of cis P-tau”.

For B13, the “elimination of cis P-tau in neurons” value is listed as “elimination of cis P-tau”.

In a further experiment the test system is mice (C57/BL6) after 3-hit repetitive TBI. In words: 3-hit repetitive mild TBI in mice, elevated plus maze. It is filed as in vivo. The following applies: risk-taking behavior, HT13 chimera control = 1.0. As for the experimental part: as §1
An initial sign of brain dysfunction following traumatic brain injury (TBI) is an increase in risk-taking behavior. To determine the therapeutic effect of the herein described cis pT231-tau monoclonal antibodies in restoring brain function 11-week old mice (C57/BL6) mice were subjected to elevated plus maze behavioral assays designed to evaluate risk-taking behavior following repetitive mild TBIs. The behavioral assays were performed as previously described in Walf, Nature Protocols 2(2): 322-328, 2007 (FIG. 7). […] All other mice sustained mild TBI (rmTB) either three times, once a day for three consecutive days, or seven times once a day for five consecutive days and two consecutive times on days 8 and 9. In the 3-hit TBI experiment (FIG. 8A), nine groups of mice received three doses (250 ug/mouse) via intraperitoneal injection of either IgG control (n=10 mice) or one of the following humanized cis pT231-tau monoclonal antibody variants C113 (n=5 mice), HT1 (n=10 mice), HT2 (n=10), HT3 (n=10), HT8 (n=5), HT10 (n=10), HT13 (n=15), HT18 (n=4). Treatment with IgG or humanized cis-pT231-tau monoclonal antibody was administered on Days 1, 2 and 7. Behavioral evaluation was performed on Day 13. In the 7-hit TBI experiment (FIG. 8B), one group sustained TBI only (n=10 mice). The other groups received 8 doses (250 ug/mouse) via intraperitoneal injection of either IgG control (n=10 mice) or one of the following humanized cis pT231-tau monoclonal antibody variants C113 (n=10 mice), HT2 (n=10), HT3 (n=10), HT8 (n=10), HT10 (n=10), HT13 (n=10), HT18/HC2 (n=10). Treatment with IgG or humanized cis-pT231-tau monoclonal antibody was administered on Days 1, 2, 3, 5, 8, 10, 13 and 20. Behavioral evaluation was performed on Day 27. The elevated plus maze was used to assess anxiety/risk-taking behavior and carried out as described in Kondo et al, Nature 523, 431-436, 2015. Briefly, the elevated plus maze consists of two white open arms (30×5 cm) and two white closed arms of the same size with 15-cm-high walls, extended out opposite from each other from a central platform (decision zone) to create a plus shape. The entire apparatus is raised 38 cm above the floor (Lafayette Instruments). Mice are placed on the center platform of the maze, facing a closed arm, and allowed to explore the apparatus for 5 min. The maze is cleaned between subjects with a weak ethanol solution and dried. A computer-assisted video tracking system (Noldus Ethovision) recorded the total time spent in the center platform (decision zone), and the two closed or ‘safe’ arms and the two open or ‘aversive’ arms. Mice with lower levels of anxiety/risk-taking behavior spend less time in the open arms.
In the case of B1, the “Functional restoration 3-hit TBI” value amounted to 1.5.
